This is an account of results in patent publication US20070185028A1, “Compositions and methods for treatment of protein misfolding and protein aggregation diseases” (priority 2004, published 2007).

No end group written: not given here.

The target in the first series is beta amyloid (Homo sapiens, UniProt P05067). Put plainly: αB crystallin protein pin array, binding of beta amyloid. To be noted: immobilized 8-mer peptide; absorption at 450 nm. The text has this: αB Crystallin peptides that bind the target protein beta-amyloid were identified by screening an αB crystallin protein pin array, which provides a systematic method for evaluating interactions between peptides corresponding to residues 1-175 of human αB crystallin and selected target proteins in a parallel and simultaneous manner.
Peptides were synthesized on derivatized polyethylene pins arranged in a microtiter plate format. Each peptide was 8 amino acids in length and consecutive peptides were offset by 2 amino acids. All peptides were covalently bonded to the surface plastic pins. The first immobilized peptide was 1MDIAIHHP8 and the last peptide was 168PAVTAAPK175 for the human αB crystallin.
After synthesis, the pins were pre-coated at room temperature with 2% Bovine Serum Albumin (BSA), 0.1% Tween-20 and 0.1% Sodium azide in 10 mM phosphate buffered saline pH 7.2 (PBS) for 1 hr, and washed three times for 10 mins each with 10 mM PBS. To screen for binding to the peptides, fixed concentrations of the target protein beta amyloid was dissolved in 10 mM PBS, containing 0.05% Tween-20, added to each well and incubated for 1 hr at room temperature. The pin array was washed three times for 10 mins each with 10 mM PBS, containing 0.05% Tween-20. Monoclonal or polyclonal primary antibodies for the target protein beta amyloid was diluted into PBS buffer, added to each well and incubated for 1 hr at room temperature. Subsequently, the pin array was washed three times for 10 mins each with 10 mM PBS containing 0.05% Tween-20. Anti-rabbit horse-radish peroxidase conjugate secondary antibodies was diluted into PBS buffer, added to each well and incubated for 1 hr at room temperature. The pin array was washed three times for 10 mins each with 10 mM PBS containing 0.05% Tween-20. A chromogenic substrate of horse-radish peroxidase 3,3′,5,5′-Tetramethylbenzidine (TMB) (Pharmingen, San Diego, Calif.) which is colorless was added, and the reaction was carried out for 45 min.
The reaction was stopped by adding 6N sulfuric acid, which changes the color from blue to yellow. The absorption at 450 nm was measured by an ELISA reader (BioTek, Winooski, Vt.).
The pin array was regenerated by sonication in a water bath (VWR Aquasonic, West Chester, Pa.) with 100 mM PBS, containing 1% Sodium dodecyl sulfate (SDS) and 0.1% 2-Mercaptoethanol@60° C. for 10 mins. Next, the pin array was rinsed three times in deionized water, preheated to 60° C. for 30 secs each time, and shaken in water preheated at 60° C. for 30 min. The pin array was then washed with methanol at 60° C. for 15 secs and air-dried and stored @−20° C. for future use. Each target protein was assayed 2-5 times against the human αB crystallin protein pin array peptides to verify the reproducibility of the results. Peptides numbered 5, 7, 8, 9, 13, 19, 22, 23, 24, 27, 35, 38, 45, 51, 52, 56, 57, 61, 66, 71, 72, and 79 in Table 2 reproducibly tested positive in the protein pin assay.
For FHSPSRLF [Peptide 9], the “binding of beta amyloid in the protein pin assay” value (“binding of beta amyloid” below) is recorded as “positive”.

On to HGKHEERQ [Peptide 51], for which the “binding of beta amyloid” value is on record as “positive”.

KHEERQDE [Peptide 52]: the “binding of beta amyloid” value was “positive”.

For the sequence KYRIPADV [Peptide 61], the “binding of beta amyloid” value is “positive”.

With LKVKVLGD [Peptide 45], the “binding of beta amyloid” value is “positive”.

For SPFYLRPP [Peptide 23], the “binding of beta amyloid” value is “positive”.

Another series relates to bovine βH crystallin. Nature of the series: αB crystallin protein pin array with βH crystallin. The following applies: unheated βH crystallin, 23° C.; similar maxima pre-heated 45° C. The series is classed as binding. An excerpt: Synthesis of Pins, binding and detection of peptides binding to ligand proteins. The αB crystallin protein pin array was used to measure the interaction between peptides and chaperone target proteins including bovine βH crystallin, human γD crystallin, equine alcohol dehydrogenase (ADH) and porcine citrate synthase (CS) as described (FIG. 12). Ghosh and Clark, Protein Sci 14: 684-95, 2005.
Refer to the methods section for detailed protocols. The absorbance corresponding to the blue coloration in each well was measured at λ=450 nm and plotted against the amino acid sequence of the corresponding peptide in that well (FIGS. 13 and 14). Wells containing peptides that have strong interactions with target proteins are dark blue and wells containing peptides that have weak or no interaction with target proteins are light blue or clear.
The purity of the target proteins used in the pin array assays, bovine βH crystallin, human γD crystallin, equine alcohol dehydrogenase (ADH) and porcine citrate synthase (CS) were determined to be >90% by SDS-PAGE. In addition, primary antibodies for each target protein were specific to that target protein and consequently contaminating proteins that may bind to the peptides will not be detected. Eighty-four sequential and overlapping peptide fragments corresponding to residues 1-175 of human αB crystallin were synthesized employing a simultaneous peptide synthesis strategy developed by Geysen, called Multipin Peptide Synthesis (Mimotopes, San Diego, Calif.). Geysen, Southeast Asian J Trop Med Public Health 21: 523-33, 1990; Chin et al., J Org Chem 62: 538-539, 1997. Peptides were immobilized on derivatized polyethylene pins arranged in a microtiter ELISA plate format. Each peptide was eight amino acids in length and consecutive peptides were offset by two amino acids. All peptides were bound covalently to the surface of the plastic pins. The first peptide was 1MDIAIHHP8 and the last peptide was 168PAVTAAPK175 for human αB crystallin.
Ghosh and Clark, Protein Sci 14: 684-95, 2005. […] The intensity of the blue color in the wells was measured at 450 nm using an ELISA plate-reader (BioTek, Winooski, Vt.). The intensity of the blue color (plotted on the X-axis) was a measure of the interaction between αB crystallin peptides (plotted on the Y-axis) and target proteins. To measure the effect of temperature on the interactions between interactive peptides and the target proteins, the target proteins were heated in a water-bath at 45° C. for fifteen minutes prior to use. Pin arrays are unable to differentiate between monomers, dimers or oligomers of target proteins that exist in solution. Instead, pin arrays are very sensitive detectors of interactions between individual peptides and the entire population (monomers, dimers or oligomers) of specific target proteins that may exist in solution under specific conditions. Each target protein was assayed two to five times. A single pin array was used for all experiments and no change in interactions was observed after more than thirty repetitions. The last three peptides of the protein pin array, 163REEKPAVT170, 165EKPAVTAA172, 167PAVTAAPK174, correspond to the epitope (163REEKPAVTAAPKK175) recognized by the primary antibody for human αB crystallin. A positive reaction is observed for these three peptides in the absence of human αB crystallin as the ligand due to direct binding of the anti-human αB crystallin antibody to these three peptides. The loss of efficiency for the pin array was measured using this assay. The loss of efficiency for the pin array was determined to be <5% by after more than 30 assays.
Protein pin arrays enabled the identification of interactive sequences necessary for the chaperone activity of human αB crystallin. Interactions between immobilized 8-mer human αB crystallin peptides and unheated and pre-heated βH crystallin, a natural protein constitute of lens cells, were measured as absorbances at λ=450 nm at 23° C. […]
For the sequence KYRIPADV [Peptide 61], the “absorbance at 450 nm, interaction with βH crystallin” value (shortened to “absorbance at 450 nm, interaction”) was “Maximum absorbances”.

On to LKVKVLGD [Peptide 45], for which the “absorbance at 450 nm, interaction” value is on record as “Maximum absorbances”.

With PPSFLRAP [Peptide 26], the “absorbance at 450 nm, interaction” value is given as “Maximum absorbances”.

Turning to SPFYLRPP [Peptide 23], the “absorbance at 450 nm, interaction” value is listed as “Maximum absorbances”.

Tested on in a further series: not given
Assay: not given
The following applies: as provided by manufacturer (Mimotopes); cited from earlier work.
Regarding APSWFDTG [Peptide 29], the Hydrophobicity is reported as 0.56.

Take DEHGFISR [Peptide 55]: the Hydrophobicity is 0.16.

For the sequence DPLTITSS [Peptide 65], the Hydrophobicity was 0.49.

Consider DRFSVNLD [Peptide 37], for which the Hydrophobicity is on record as 0.19.

On to DVDPLTIT [Peptide 64], for which the Hydrophobicity was 0.55.

For the sequence EELKVKVL [Peptide 44], the Hydrophobicity is given as 0.32.

As for EERQDEHG [Peptide 53], the Hydrophobicity is given as −0.47.

With EKDRFSVN [Peptide 36], the Hydrophobicity is −0.13.

For EKPAVTAA [Peptide 83], the Hydrophobicity is given as 0.19.

For EMRLEKDR [Peptide 34], the Hydrophobicity is −0.27.

As for EVHGKHEE [Peptide 50], the Hydrophobicity is given as −0.18.

Take FDTGLSEM [Peptide 31]: the Hydrophobicity is recorded as 0.44.

As to FHSPSRLF [Peptide 9], the Hydrophobicity is 0.63.

Consider GDVIEVHG [Peptide 48], for which the Hydrophobicity was 0.37.

As to GEHLLESD [Peptide 15], the Hydrophobicity is on record as 0.18.

As for GPRKQVSG [Peptide 74], the Hydrophobicity is reported as −0.04.

HESPEELK [Peptide 42]: the Hydrophobicity is 0.25.

In the case of HGKHEERQ [Peptide 51], the Hydrophobicity was −0.41.

As for HLLESDLF [Peptide 16], the Hydrophobicity is 0.7.

Take HPWIRRPF [Peptide 4]: the Hydrophobicity is recorded as 0.67.

For the sequence HRKYRIPA [Peptide 60], the Hydrophobicity was 0.11.

For IHHPWIRR [Peptide 3], the Hydrophobicity is 0.6.

Consider IPITREEK [Peptide 80], for which the Hydrophobicity is listed as 0.16.

Regarding ITREEKPA [Peptide 81], the Hydrophobicity is −0.02.

For the sequence ITSSLSSD [Peptide 67], the Hydrophobicity is recorded as 0.35.

Turning to KHEERQDE [Peptide 52], the Hydrophobicity was −0.6.

Consider KYRIPADV [Peptide 61], for which the Hydrophobicity was 0.28.

In the case of LDVKHFSP [Peptide 40], the Hydrophobicity is 0.47.

Turning to “LESDLFPT (also: covalently bound to polyethylene pin) [Peptide 17]”, the Hydrophobicity is recorded as 0.59.

For the sequence LFDQFFGE [Peptide 12], the Hydrophobicity is 0.68.

As to LKVKVLGD [Peptide 45], the Hydrophobicity was 0.39.

With LSEMRLEK [Peptide 33], the Hydrophobicity is listed as 0.16.

Regarding LSSDGVLT [Peptide 69], the Hydrophobicity was 0.5.

For MDIAIHHP [Peptide 1], the Hydrophobicity is 0.67.

Take PADVDPLT [Peptide 63]: the Hydrophobicity is recorded as 0.42.

With PAVTAAPK [Peptide 84], the Hydrophobicity is 0.36.

With PERTIPIT [Peptide 78], the Hydrophobicity is 0.49.

Regarding PPSFLRAP [Peptide 26], the Hydrophobicity is reported as 0.61.

For PTSTSLSP [Peptide 20], the Hydrophobicity was 0.44.

With QVSGPERT [Peptide 76], the Hydrophobicity is listed as 0.04.

Take REEKPAVT [Peptide 82]: the Hydrophobicity is listed as −0.1.

Take RIPADVDP [Peptide 62]: the Hydrophobicity is recorded as 0.28.

Regarding RKQVSGPE [Peptide 75], the Hydrophobicity is on record as −0.12.

Regarding RQDEHGFI [Peptide 54], the Hydrophobicity was 0.14.

For RRPFFPFH [Peptide 6], the Hydrophobicity was 0.62.

With SDGVLTVN [Peptide 70], the Hydrophobicity is given as 0.37.

As to SDLFPTST [Peptide 18], the Hydrophobicity was 0.49.

On to SGPERTIP [Peptide 77], for which the Hydrophobicity was 0.23.

Regarding SPEELKVK [Peptide 43], the Hydrophobicity was 0.04.

In the case of SPFYLRPP [Peptide 23], the Hydrophobicity was 0.7.

For the sequence SPSRLFDQ [Peptide 10], the Hydrophobicity is given as 0.27.

With SRLFDQFF [Peptide 11], the Hydrophobicity is reported as 0.63.

Regarding SSLSSDGV [Peptide 68], the Hydrophobicity is on record as 0.25.

Take STSLSPFY [Peptide 21]: the Hydrophobicity is recorded as 0.66.

With SWFDTGLS [Peptide 30], the Hydrophobicity is 0.64.

Regarding TGLSEMRL [Peptide 32], the Hydrophobicity is reported as 0.4.

As to VIEVHGKH [Peptide 49], the Hydrophobicity is 0.36.

In the case of VKHFSPEE [Peptide 41], the Hydrophobicity is recorded as 0.19.

As for VKVLGDVI [Peptide 46], the Hydrophobicity was 0.68.

For VLGDVIEV [Peptide 47], the Hydrophobicity is listed as 0.72.

As to VNGPRKQV [Peptide 73], the Hydrophobicity is 0.04.

For VNLDVKHF [Peptide 39], the Hydrophobicity is given as 0.46.
